What was measured:
[1] = test system: HeLa Kyoto; experiment: solubility in G1/S (NP-40 vs SDS abundance) (log2 ratio); higher = more soluble; settings: cell cycle stage: G1/S
[2] = test system: HeLa Kyoto; experiment: melting temperature (median over replicates), in situ; higher = more thermally stable
[3] = test system: HeLa Kyoto; experiment: solubility change mitosis vs G1/S (difference of NP-40 vs SDS log2 ratios) (log2 ratio difference); higher = more soluble in mitosis
[4] = test system: HeLa Kyoto; experiment: thermal stability score vs G1/S (z-score of summed log2 fold changes over temperatures); higher = more thermally stable than in G1/S
[5] = cell cycle stage: early G1 (4.5 h after nocodazole release)
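Wherever melting temperature (median over replicates), in situ is given: HeLa Kyoto cells synchronized by double thymidine or nocodazole block, proteins quantified by TMT10plex mass spectrometry, three independent biological replicates.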
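Wherever solubility change mitosis vs G1/S (difference of NP-40 vs SDS log2 ratios) is given: synchronized HeLa Kyoto cells (double thymidine block for G1/S, nocodazole release for mitosis), protein amounts in NP-40 versus SDS lysates quantified by mass spectrometry, three biological replicates.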
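Wherever solubility in G1/S (NP-40 vs SDS abundance) is given: HeLa Kyoto cells arrested at G1/S by double thymidine block, proteins quantified by TMT10plex mass spectrometry in mild NP-40 versus SDS extracts, three biological replicates.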
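Wherever thermal stability score vs G1/S (z-score of summed log2 fold changes over temperatures) is given: synchronized HeLa Kyoto cells, proteins quantified by TMT10plex mass spectrometry, three biological replicates, mitosis taken 0.5 h after nocodazole release, G1/S directly after double thymidine block.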

Sequence | solubility in G1/S (log2) [1] | melting temperature ([2]; cell cycle stage: G1/S) | melting temperature ([2]; cell cycle stage: mitosis) | solubility change mitosis (log2) [3] | thermal stability score [4, 5] | thermal stability score ([4]; cell cycle stage: mitosis)
MRRFLLLYATQQGQAKAIAEEICEQAVVHGFSADLHCISESDKYDLKTETAPLVVVVSTTGTGDPPDTARKFVKEIQNQTLPVDFFAHLRYGLLGLGDSEYTYFCNGGKIIDKRLQELGARHFYDTGHADDCVGLELVVEPWIAGLWPALRKHFRSSRGQEEISGALPVASPASSRTDLVKSELLHIESQVELLRFDDSGRKDSEVLKQNAVNSNQSNVVIEDFESSLTRSVPPLSQASLNIPGLPPEYLQVHLQESLGQEESQVSVTSADPVFQVPISKAVQLTTNDAIKTTLLVELDISNTDFSYQPGDAFSVICPNSDSEVQSLLQRLQLEDKREHCVLLKIKADTKKKGATLPQHIPAGCSLQFIFTWCLEIRAIPKKAFLRALVDYTSDSAEKRRLQELCSKQGAADYSRFVRDACACLLDLLLAFPSCQPPLSLLLEHLPKLQPRPYSCASSSLFHPGKLHFVFNIVEFLSTATTEVLRKGVCTGWLALLVASVLQPNIHASHEDSGKALAPKISISPRTTNSFHLPDDPSIPIIMVGPGTGIAPFIGFLQHREKLQEQHPDGNFGAMWLFFGCRHKDRDYLFRKELRHFLKHGILTHLKVSFSRDAPVGEEEAPAKYVQDNIQLHGQQVARILLQENGHIYVCGDAKNMAKDVHDALVQIISKEVGVEKLEAMKTLATLKEEKRYLQDIWS [MTRR] | 0.0379 | 50.1 °C | 50.2 °C | -0.105 | 0.212 | 0.326
MRRQWGSAMRAAEQAGCMVSASRAGQPEAGPWSCSGVILSRSPGLVLCHGGIFVPFLRAGSEVLTAAGAVFLPGDSCRDDLRLHVQWAPTAAGPGGGAERGRPGLCTPQCASLEPGPPAPSRGRPLQPRLPAELLLLLSCPAFWAHFARLFGDEAAEQWRFSSAARDDEVSEDEEADQLRALGWFALLGVRLGQEEVEEERGPAMAVSPLGAVPKGAPLLVCGSPFGAFCPDIFLNTLSCGVLSNVAGPLLLTDARCLPGTEGGGVFTARPAGALVALVVAPLCWKAGEWVGFTLLCAAAPLFRAARDALHRLPHSTAALAALLPPEVGVPWGLPLRDSGPLWAAAAVLVECGTVWGSGVAVAPRLVVTCRHVSPREAARVLVRSTTPKSVAIWGRVVFATQETCPYDIAVVSLEEDLDDVPIPVPAEHFHEGEAVSVVGFGVFGQSCGPSVTSGILSAVVQVNGTPVMLQTTCAVHSGSSGGPLFSNHSGNLLGIITSNTRDNNTGATYPHLNFSIPITVLQPALQQYSQTQDLGGLRELDRAAEPVRVVWRLQRPLAEAPRSKL [TYSND1] | -0.163 | 55.1 °C | 54 °C | 0.0273 | -2.49 | -2.64
MRSLGANMAAALRAAGVLLRDPLASSSWRVCQPWRWKSGAAAAAVTTETAQHAQGAKPQVQPQKRKPKTGILMLNMGGPETLGDVHDFLLRLFLDRDLMTLPIQNKLAPFIAKRRTPKIQEQYRRIGGGSPIKIWTSKQGEGMVKLLDELSPNTAPHKYYIGFRYVHPLTEEAIEEMERDGLERAIAFTQYPQYSCSTTGSSLNAIYRYYNQVGRKPTMKWSTIDRWPTHHLLIQCFADHILKELDHFPLEKRSEVVILFSAHSLPMSVVNRGDPYPQEVSATVQKVMERLEYCNPYRLVWQSKVGPMPWLGPQTDESIKGLCERGRKNILLVPIAFTSDHIETLYELDIEYSQVLAKECGVENIRRAESLNGNPLFSKALADLVHSHIQSNELCSKQLTLSCPLCVNPVCRETKSFFTSQQL [FECH] | 0.25 | 51.9 °C | 53.4 °C | -0.0764 | -0.37 | -0.327
MRTAGRDPVPRRSPRWRRAVPLCETSAGRRVTQLRGDDLRRPATMKGKERSPVKAKRSRGGEDSTSRGERSKKLGGSGGSNGSSSGKTDSGGGSRRSLHLDKSSSRGGSREYDTGGGSSSSRLHSYSSPSTKNSSGGGESRSSSRGGGGESRSSGAASSAPGGGDGAEYKTLKISELGSQLSDEAVEDGLFHEFKRFGDVSVKISHLSGSGSGDERVAFVNFRRPEDARAAKHARGRLVLYDRPLKIEAVYVSRRRSRSPLDKDTYPPSASVVGASVGGHRHPPGGGGGQRSLSPGGAALGYRDYRLQQLALGRLPPPPPPPLPRDLERERDYPFYERVRPAYSLEPRVGAGAGAAPFREVDEISPEDDQRANRTLFLGNLDITVTESDLRRAFDRFGVITEVDIKRPSRGQTSTYGFLKFENLDMSHRAKLAMSGKIIIRNPIKIGYGKATPTTRLWVGGLGPWVPLAALAREFDRFGTIRTIDYRKGDSWAYIQYESLDAAHAAWTHMRGFPLGGPDRRLRVDFADTEHRYQQQYLQPLPLTHYELVTDAFGHRAPDPLRGARDRTPPLLYRDRDRDLYPDSDWVPPPPPVRERSTRTAATSVPAYEPLDSLDRRRDGWSLDRDRGDRDLPSSRDQPRKRRLPEESGGRHLDRSPESDRPRKRHCAPSPDRSPELSSSRDRYNSDNDRSSRLLLERPSPIRDRRGSLEKSQGDKRDRKNSASAERDRKHRTTAPTEGKSPLKKEDRSDGSAPSTSTASSKLKSPSQKQDGGTAPVASASPKLCLAWQGMLLLKNSNFPSNMHLLQGDLQVASSLLVEGSTGGKVAQLKITQRLRLDQPKLDEVTRRIKVAGPNGYAILLAVPGSSDSRSSSSSAASDTATSTQRPLRNLVSYLKQKQAAGVISLPVGGNKDKENTGVLHAFPPCEFSQQFLDSPAKALAKSEEDYLVMIIVRGFGFQIGVRYENKKRENLALTLL [RBM15] | -0.606 | 46.7 °C | 48.7 °C | 0.598 | 2.61 | 6.38
MRVAAATAAAGAGPAMAVWTRATKAGLVELLLRERWVRVVAELSGESLSLTGDAAAAELEPALGPAAAAFNGLPNGGGAGDSLPGSPSRGLGPPSPPAPPRGPAGEAGASPPVRRVRVVKQEAGGLGISIKGGRENRMPILISKIFPGLAADQSRALRLGDAILSVNGTDLRQATHDQAVQALKRAGKEVLLEVKFIREVTPYIKKPSLVSDLPWEGAAPQSPSFSGSEDSGSPKHQNSTKDRKIIPLKMCFAARNLSMPDLENRLIELHSPDSRNTLILRCKDTATAHSWFVAIHTNIMALLPQVLAELNAMLGATSTAGGSKEVKHIAWLAEQAKLDGGRQQWRPVLMAVTEKDLLLYDCMPWTRDAWASPCHSYPLVATRLVHSGSGCRSPSLGSDLTFATRTGSRQGIEMHLFRVETHRDLSSWTRILVQGCHAAAELIKEVSLGCMLNGQEVRLTIHYENGFTISRENGGSSSILYRYPFERLKMSADDGIRNLYLDFGGPEGELTMDLHSCPKPIVFVLHTFLSAKVTRMGLLV [SNTB2] | -0.0262 | 49.4 °C | 50.3 °C | 0.0092 | 0.506 | 0.99
MRVAALISGGKDSCYNMMQCIAAGHQIVALANLRPAENQVGSDELDSYMYQTVGHHAIDLYAEAMALPLYRRTIRGRSLDTRQVYTKCEGDEVEDLYELLKLVKEKEEVEGISVGAILSDYQRIRVENVCKRLNLQPLAYLWQRNQEDLLREMISSNIQAMIIKVAALGLDPDKHLGKTLDQMEPYLIELSKKYGVHVCGEGGEYETFTLDCPLFKKKIIVDSSEVVIHSADAFAPVAYLRFLELHLEDKVSSVPDNYRTSNYIYNF [DPH6] | 0.152 | 50.2 °C | 50.6 °C | -0.0821 | -0.982 | 0.029
MRVAGAAKLVVAVAVFLLTFYVISQVFEIKMDASLGNLFARSALDTAARSTKPPRYKCGISKACPEKHFAFKMASGAANVVGPKICLEDNVLMSGVKNNVGRGINVALANGKTGEVLDTKYFDMWGGDVAPFIEFLKAIQDGTIVLMGTYDDGATKLNDEARRLIADLGSTSITNLGFRDNWVFCGGKGIKTKSPFEQHIKNNKDTNKYEGWPEVVEMEGCIPQKQD [FAM3C] | 0.634 | 54.2 °C | 53.2 °C | 0.0546 | 0.362 | 0.765
